In the nanobody polyreactivity screen of Harvey et al. (2022):

Assay: yeast display, Sf9 membrane polyspecificity reagent, FACS + sequencing; frameworks hold sequencing errors
Method in brief: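 Nanobodies from a synthetic yeast display library (Saccharomyces cerevisiae BJ5465), induced 36–48 hours with galactose, were stained 1 hour at 4 °C with 10% biotinylated, detergent-solubilized Sf9 membrane reagent, enriched on streptavidin microbeads, then FACS-sorted. Anti-HA (expression) and streptavidin (reagent binding) fluorescence set low and high (top ~1%) gates. Polyreactivity labels come from the gate of origin. Genes were colony-PCR amplified, MiSeq 2 × 250 sequenced and filtered by CDR length.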

Sequence: QVQLVESGGGLVQAGGSLRLSCAASGYTFTIYAMGWSRQAPGKERESVASISIDGSTYYADSVKGRFTISRDNAKNTVYLQMNSLKPEDTAGYYCAADYYYYNPGFDYWGQGTQVTVSS
- polyreactivity (PSR sort gate): low polyreactivity

Sequence: QVQLVDSAGGLVQAGGSLRLSCAASGFIFRRNAMGWYRQAPGKERELVAGINRSGTRTYYADSVKGRFTISRDNAKNTVNLQMNSLKPEDTAVYYCAALVYRPTYGYIFDYWGQGTQVTVSS
- polyreactivity (PSR sort gate): high polyreactivity

Sequence: QVQLVESGGGLVQAGGSLRLSCAASGRTYVRNAMGWYRQAPGKERELVAGITRSGGSTYYADSVKGRFTISRDNAKNTVYLQMNSLKPEDTAVYYCAKRYDVYVGTVRPYDYWGQGTQVTVSS
- polyreactivity (PSR sort gate): low polyreactivity

Sequence: QVQLVESRGGLVQAGGSLRLSCAASGSTFNYYTMGWNRQAPGKERELVATITSGGTTYYADSVKGRFTISRDNAKNTVYLQMNSLKPEDTAVYYCAVQLRRHVDMDYWGQGTQVTVSS
- polyreactivity (PSR sort gate): high polyreactivity

Sequence: QVQLVESGGGLVQAGGSLRLSCAASGFIFNRYAMGWYRQAPGKERELVADITGGSTYYADSVKGRFTISRDNAKNTVYLQMNSLKPEDTAVYYCAADVLRISTQLFRGPGFDSWGQGTQVTVSS
- polyreactivity (PSR sort gate): low polyreactivity

Sequence: QVQLVESGGGLVQAGGSLRLSCAASGSIFTLYAMGWYRQAPGKERELVATINWSGGSTSYADSVKGRFTISRDNAKNTVYLQMNSLKPEDTAVYYCAADAGSYDALDYSDLLYDYWGQGTQVTVSS
- polyreactivity (PSR sort gate): low polyreactivity

Sequence: QVQLVESGGGLVQAGGSLRLSCAASGRIFFTYAMGWYRQAPGKERELVASITGSGGSTYYADSVKGRFTISRDNAKNTVYLQMNSLQPEETAVYYCAAALFPRQLYRKFYYWGQGTQVTVSS
- polyreactivity (PSR sort gate): low polyreactivity

Sequence: QVQLVESGGGLVQAGGSLRLSCAASGRIFGYYSMGWYRQAPGKEREFVSTINSVGSTNYADSVKGRFTISRDNAKNTVYLKMNSLKAEDTAVYYGATDSAYTFFSYRLWRHGYWGQGTQVTVSS
- polyreactivity (PSR sort gate): low polyreactivity

Sequence: QVQLVESGGGLVQAGGSLRLSCAASGFTFAVYAMGWDSQAPGKERELVAAISRSGTRTYYADSVKGRFTSSRDNAKNTVSLQMNSLKPEDTAVYYCAADKYRHGYDYWGQGTQVTVSS
- polyreactivity (PSR sort gate): low polyreactivity

Sequence: QVQLVESGGGLVQAGGSLRLSCAASGIIFTSNTMGWYRQAPGKEREFVASINWNGSSTYADSVKGRFTISRDNAKNTVFLQMNSLKPEDTAVYDCNADYYRNSVQFSLYDYWGHGTQVTVSS
- polyreactivity (PSR sort gate): low polyreactivity

Sequence: QVQLVESGGGLVQAGGSLRLSCAASGRIFYQYAMGWYRQAPGKERELVAAIRYRDDGTYYADSVKGRFTISRDNAKNTVYLQMNSLQPEDTAVYYCAAKQWGRYGYWGQGTQVTVSS
- polyreactivity (PSR sort gate): high polyreactivity

Sequence: QVQLVETGGVLDQAGGSLRLSCAASGRIFWANAMGWYRQAPGKERELVAAISYSGVSTYYADSVKGRFTSSRDNAKNTVYLQMNSLKPEDTAVYYCAADRYRKYYYWGQGTQVTVSS
- polyreactivity (PSR sort gate): high polyreactivity

Sequence: QVQLVESGGGLVQAGGSLRLSCAASGRILTNYVMGWYRQAPGKERELVAAITDSGGITYADSVKGRFTISRDNAKNTVYLQMNSLKPEDTAVYYCAAVRFFLYYFDFSAYDYWGQGTQVTVSS
- polyreactivity (PSR sort gate): low polyreactivity

Sequence: QVQLEESGGGLVQAGGSHRLSCAASGFTFIDNAMGSYRQAPGKERELVAAISISGGRTYYADSVKGRFTISRDNAKNTVYLQMNSLKPEDTAVYYCAAGKHRRDDYWGQGTQVTVSS
- polyreactivity (PSR sort gate): high polyreactivity

Sequence: QVQLVESGGGLVQAGGSLRLSCAASGNIFDSYAMGWYRQAPGKERELVAAISFSGGNTYYADSVKGRFTISRDNAKNTVYLQMNSLKPEDTAVYYCAADYFAVTPYRAADVAEDYWGQGTQVTVSS
- polyreactivity (PSR sort gate): low polyreactivity

Sequence: QVQLVDSGGGLVQAGGSLRLSCAASGFTFWRYVMGWYRQAPGKERELVAAISGRGSRTFYADSVKGRFTISRDNAKNTVYLQMNSLKPEDTAVYYCNAYPGTSGTLYVTPYDYWGQGSQVTVSS
- polyreactivity (PSR sort gate): high polyreactivity

Sequence: QVQLVESGGGLVKAGGSLRLSSAATGSTFWEYVMGWYRQPPGKERELVAAITTNDDSTYYADSVKGRFTISRDNAKKTVYLQMNSLKPEDTAVYYCNADQITGQFDYWGQGTQVTVSS
- polyreactivity (PSR sort gate): low polyreactivity

Sequence: QVHLVESGGGLVQAGGSLRLSCAASGRTFVRYAMGWYRQAPGKERELVAAISLRGGRTYYADSVKGRFTISRDNAKNTVYLQMNSLKPEDTAVYYCAARSYPTGASYDYWGQGTQVTVSS
- polyreactivity (PSR sort gate): high polyreactivity

Sequence: QVQLVESGGGLVQAGGSLRLSCAASGFTFLYYDMGWYRPAPGKERELVAAITSSGTSTYYADSVKGRFTISRDNAKNSVYLQMNSLKPEDTAVYYCAVLYTYAGRHRYGYWGQGTQVTVSS
- polyreactivity (PSR sort gate): high polyreactivity

Sequence: QVQLVESGGGLVQAGGSLRLSCAASGSIFSYYAMGWYRQAPGKERELVAAISRSGASTSYADSVKGRFTISRDNAKNTVYLQMNSLKPEDTAVYYCAKRIYWRGSWGRYYYWGQGTQVTVSS
- polyreactivity (PSR sort gate): high polyreactivity

Sequence: QVQLVESGGGLVQAGGSLRLSCAASGSTFPGNAMGWYRQAPGKERELVASIRRSGGSTYYADSVKGRFTISRDNAKNTVYLQMNSLKPADTAVDDCAKRTFLVSGPRSYGCYGVYYWGQGTQVTVSS
- polyreactivity (PSR sort gate): high polyreactivity

Sequence: QVQLVESGGGLVQAGGSLRLSCAASGFTFDNYVMGWYRQAPGKERELVAAISKSGTSTYYADSVKGRFTISRDNAKNTVYLQMNSLKPEDTAVYYCAAELPGYYYAYDYWGQGTQVTVSS
- polyreactivity (PSR sort gate): high polyreactivity

Sequence: QVQLVESGGGLVQAGGSLRLSCAASGITFYPYAMGWYRQAPGKERELVAAISFSGGSTYYADSVKGRFTISRDNAKNTVYLQMNSLKPEDTAVYYCAADRRSGDDYWGQGTQVTVSS
- polyreactivity (PSR sort gate): high polyreactivity

Sequence: QVQLVESGGGLVQAGGSLRLSCAASGRIYRYAMGWYRQAPWKERELVASISRRGGSTYYADSVKGRFTISRDNAKNTVYVQMNSLKPEDTALYSCNAYGYSFCYDYWGHGTQVTVSS
- polyreactivity (PSR sort gate): high polyreactivity

Sequence: QVQLVESGGGLVQAGGSLRLSCAASGSIFEGYVMGCDIQAPGKERELVATISFSGGSTYYADSVKGRFTISRDNAKNTVYLQMNSLKPEDTAVYYCNALVYHTKGDYGYWGQGTQVTVSS
- polyreactivity (PSR sort gate): low polyreactivity

Sequence: QVQLVESGGGLVQAGGSLRLSCAASGSTFVVNAMVWYRQAPGKERELVAAITQDGDGTYYADSVKGRFTISRDNAKNTVYLQMNSLKPEDTAVYYCAAYPFYGPYDEFDYWGQGTQVTVSS
- polyreactivity (PSR sort gate): low polyreactivity

Sequence: QVQLVESGGGLVQAGGSLRLSCAASGGTFSRNAMGWYRQAPGKERELVAAITSGGRTNYADSVKGRFTISRDNAKNTVYLKMNSLKAEDTAVYYCAARKGKETLYHSTPPYYYWGQGTQVTVSS
- polyreactivity (PSR sort gate): high polyreactivity

Sequence: QVQLVESGGGLVQAGGSLRLSCAASGFTFSTNAMGWYRQAPGKERELVAAISWSGSSTYYADSVKGRFTISRDNAKNTVYLQMNSLKPEDTAVYYCAKSRGQADPTYDYWGQGTQVTVSS
- polyreactivity (PSR sort gate): low polyreactivity

Sequence: QGQLVESGGGLVQAGGSLRLSCAASGSIFGPYVMGWYRPAPGTERELVASITSSGGSTYYADSVKGRFTISRDNAKNTVYLQMNSLKPEDTAVYYCAATRSFSGGYGYVSYDYWGQGTQVTVSS
- polyreactivity (PSR sort gate): high polyreactivity

Sequence: QVQLVESGGGLVQAGGSLRLSCAASGFIFRYYAMGWYRQAPGKERELVAAISWSGTRTFYADSVKGRFTISRDNAKNTVYLQMNSLKPEDTAVYYCAAETTGYDSYIQYEYWGQGTQVTVSS
- polyreactivity (PSR sort gate): high polyreactivity

Sequence: QVQQQESGGGLVQACGSLPLSCAASVSIFTQATMGWYRQPPGKERELVAAINFGSSTYYADSVKGRFTISRDNAKSTVYLQMNSLKPEDTSVYYCAVRALWYDLHDYWGQGTQVTVSS
- polyreactivity (PSR sort gate): high polyreactivity

Sequence: QVQLVESGGGLVQAGGSLRLSCAASGRILYLYTMGWYRQAPGKERELVAAISRGGSTYYADSVKGRFTISRDNAKNTVYLQMNSLKPEDTAVYSCAADARGYQFNYWGQGTQVTVSS
- polyreactivity (PSR sort gate): low polyreactivity

Sequence: QVQLVESGGGLVQAGGSLRISCAASGSNFASYAMGWYRQAPGKERELVSVITSGGRTYYADSVKGRFTISRDNAKNTVYLQMNSLKPEDTAVYYCKAYLFFLNRVWSFDYWGQGTQVTVSS
- polyreactivity (PSR sort gate): high polyreactivity

Sequence: QVQLVESGGGLVQAGGSLRLSCAASGFIFKIYAMGWYRQAPGKERELVATISRGGSTYYADSVKGRFTISRDNAKNTVYLQMISLNPVDTAVYYCADVFYYPPFLYNYWGQGTQVTVSS
- polyreactivity (PSR sort gate): high polyreactivity

Sequence: QVQLVESGGGLVQAGGSLRLSCAASGRTFYSYAMGWYRQAPGKEREFVAAINWSGTSTYADSVKGRFTISRDNAKNTVYLQMNSLKPEDTAVSYCAKTYRTLVRYWGQPFGYWGQGTQVTVSS
- polyreactivity (PSR sort gate): high polyreactivity

Sequence: QVQLVESGGGLVQAGGSLRLSCAASGRIVKFYDMGWYRQAPGKEREFVAAISRRGSSTYYADSVKGRFTISRDNAKNTVYLQMNSLKPEDTAVYYCAADWTFGAIGYYYWGHGTQVTVSS
- polyreactivity (PSR sort gate): high polyreactivity

Sequence: QVQLEESRGGLVQAGGSLRLSSADSGSTFDYYAKGWYRQAPGKERELVAAITSTGRTYYADSVKGRFTISRDNAKNTVYLQMNSLKPEDTAVYYCAADLPWGPLFDYWGQGTQVTVSS
- polyreactivity (PSR sort gate): low polyreactivity

Sequence: QFHLVESGGGLVQAGGSLRLSCAASGRIFSEYAMGWYRQAHGKEMELVASISTSGGSTYYADSVKGRFTISRDNAKNTVYLQKYSLKPEDTEVYYCNVAYYRYPSYTYGYDHWGQGTQVTVSS
- polyreactivity (PSR sort gate): high polyreactivity

Sequence: QVQLVESGGGLVQAGGSLRLSCAASGFTFYGNAMGWYRQAPGKERELVASISTYYADSVKGRFTISRDNAKNTVYLQMNSLKPEDTAVYYCAATHYDRTFYVIYDYWGQGTQVTVSS
- polyreactivity (PSR sort gate): low polyreactivity

Sequence: QVQLVESGGGLVQAGGSLRLSCAASGSTCWFYAMGWYRQAPGKEREVVATITSGGNTTYADSVKGRFTISRDNAKNTVYLQMNSLKPEDTAVYYCAAGWQAPWGYYYHFEYDYWGQGTQVTVSS
- polyreactivity (PSR sort gate): low polyreactivity

Sequence: QVQLVESGGGLVQAGGSLRLSCAASGFTFLYYAMGWYRHAPGKERELVAAITTGSSTNYADSVKGRFTISRDNAKNTVYLQMNSLKPEDTAVYYCAAEYYYRVWYGHYYEYDYWGQGTQVTVSS
- polyreactivity (PSR sort gate): high polyreactivity

Sequence: QVQLVESGGGLVQAGGSLRLSCAASGRTFSYYAMGWYRQAPGKERELVASIRKSGASTYYADSVKGRFTISRDNAKNTVYLQMNSLKPEDTAVYYCNTAGWSFYSGRYDYWGQGTQVTVSS
- polyreactivity (PSR sort gate): high polyreactivity

Sequence: QVQLVESGGGLVQAGGSLRLSCAASGRIFYRYAMGWYRQAPGKERELVAAITRGGRTNYADSVKGRFTISRDNAQNTVYLQMNSLKPEDTAVYYCRPLWYGFDYWGQGTQVTVSS
- polyreactivity (PSR sort gate): high polyreactivity
